We go through three molecules from article PMC5242376 (Science signaling, 2016).

Experiment [1] has as its target T1, His-tagged MuSK ectodomain (UniProt Q61006 22-494).
T1 sequence (looked up): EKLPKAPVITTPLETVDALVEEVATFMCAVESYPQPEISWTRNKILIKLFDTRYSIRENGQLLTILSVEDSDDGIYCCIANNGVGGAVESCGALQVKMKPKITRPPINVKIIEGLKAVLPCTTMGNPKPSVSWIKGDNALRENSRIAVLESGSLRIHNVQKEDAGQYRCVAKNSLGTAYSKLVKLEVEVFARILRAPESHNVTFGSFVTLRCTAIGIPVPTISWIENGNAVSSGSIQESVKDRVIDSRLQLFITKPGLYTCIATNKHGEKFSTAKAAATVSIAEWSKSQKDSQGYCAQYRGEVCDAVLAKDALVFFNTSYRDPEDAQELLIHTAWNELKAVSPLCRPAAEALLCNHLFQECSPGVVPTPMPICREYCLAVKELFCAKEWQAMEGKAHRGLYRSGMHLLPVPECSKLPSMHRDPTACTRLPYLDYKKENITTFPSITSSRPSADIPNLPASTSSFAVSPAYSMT
Briefly: SPR. For orientation: In SPR one partner is held on a chip, and binding of the other changes the refractive index at the surface.

In experiment [2] the target is T2, full-length Fc-fusion MuSK ectodomain (UniProt Q61006 22-494).
T2 sequence (looked up): T1 sequence (looked up)
The experiment can be described thus: ELISA. Background: An ELISA detects its analyte on a solid surface through an enzyme-linked reagent.

B1: recombinant human BMP2 (ligand, UniProt P12643 283-396, looked up)
chain: QAKHKQRKRLKSSCKRHPLYVDFSDVGWNDWIVAPPGYHAFYCHGECPFPLADHLNSTNHAIVQTLVNSVNSKIPKACCVPTELSAISMLYLDENEKVVLKNYQDMVVEGCGCR
Usually Kd stands for the free concentration of one partner at which half of the binding sites on the other are occupied at equilibrium, for simple one-to-one binding. Low readings indicate tighter binding, high ones weaker binding. As for B1, the Kd in experiment [1] came out at 0.0056 µM. That is a single-digit nanomolar value.

B2: recombinant human BMP7 (ligand, UniProt P18075 293-431, looked up)
chain: STGSKQRSQNRSKTPKNQEALRMANVAENSSSDQRQACKKHELYVSFRDLGWQDWIIAPEGYAAYYCEGECAFPLNSYMNATNHAIVQTLVHFINPETVPKPCCAPTQLNAISVLYFDDSSNVILKKYRNMVVRACGCH
In the case of B2, binding in experiment [1] was put at a Kd of 0.0118 µM. Against the preceding molecule, the Kd is about 2.1-fold higher.

B3: recombinant human BMP4 (ligand, UniProt P12644 293-408, looked up)
chain: SPKHHSQRARKKNKNCRRHSLYVDFSDVGWNDWIVAPPGYQAFYCHGDCPFPLADHLNSTNHAIVQTLVNSVNSSIPKACCVPTELSAISMLYLDEYDKVVLKNYQEMVVEGCGCR
A word on the EC50: it is the midpoint of the concentration-response curve. Regarding B3, the EC50 in experiment [2] is ~0.03 µM.
